Assay results from US20110021974A1, “RETINITIS PIGMENTOSA TREATMENT AND PROPHALAXIS” (priority 2010, published 2011).

Experiments:
macular edema = settings: in vivo; cited from earlier work
[1] = Curcumin safety for retina and CNS; settings: in vivo
Description: Deferoxamine may modulate expression and release of inflammatory mediators in the retinitis pigmentosa as indicated in Fenton reaction by specific cell types, thus, reduce or stop the damage by our invention. Deferoxamine used with insulin of our invention along with ophthalmic drops can reduce the ROS oxidant damage, arrest, or delay the processes of retinitis pigmentosa. We have used this method to treat the CNS disease with good results. We have used the extract of Turmeric, called curcumin, with insulin as antioxidant with good results.

[2] = MSM ophthalmic drops in patients; assay type: in vivo
Description: We have used aqueous solutions of MSM filtered, sterilized, and mixed with insulin.

[3] = cited from earlier work
retinitis pigmentosa [4] = settings: administered in a form suitable to obtain therapeutic tissue concentrations; cited from earlier work
[5] = tested on: patients with retinitis pigmentosa; settings: cited from earlier work
[6] = in vivo; cited from earlier work
[7] = ADT given orally and as eye drops in dry mouth and dry eyes conditions; assay type: in vivo; settings: 25 mg orally and nanograms concentration in eye drops
Protocol: Follow the instruction as described in the above EXAMPLE 1. Another drug available to treat autoimmune disease related to Sjogren's disease is an organo sulfur compound, anethole dithiolethione (ADT-trade name Sialor, sold over the counter in Canada) with hardly any side effects. The ADT stimulates the secretion of saliva, in patients with autoimmune exocrinopathy (Sjogren's syndrome). Sialor alleviates the symptoms of xerostomia and xeroophthalmia. We have used ADT 25 mg orally and ADT in nanograms concentration in liquid ophthalmic eye drops with successes in these conditions, especially, those on chemotherapy, menopausal women, and chronic smokers with dry mouth and dry eyes conditions.

photoreceptor cell = settings: applied topically to the eyes; in vitro model; cited from earlier work
[8] = Description: The present invention formulations contain only 0.10 to 1.00 IU per drop which the dosage can be increased or the dosage can be decreased depending upon the disease states.
retinitis pigmentosa [9] = experiment: Insulin ophthalmic drops in oculopathies including retinitis pigmentosa; assay type: in vivo; settings: used for years
Description: This and other metabolic and therapeutic qualities of the insulin will prevent the development, stop the progression, and curtail or cure the retinitis pigmentosa. I have used insulin ophthalmic drops for various oculopathies, including, retinitis pigmentosa for years with great success.

[10] = Insulin added to anti allergic ophthalmic agents in eye allergy; assay type: in vivo; settings: insulin with vasoconstrictors and anti allergic agents such as corticosteroids
Description: Follow the instruction as described in the above EXAMPLE 1. The symptoms of an eye allergy are mild to moderate where allergies can be severe during early spring and the beginning of fall. Self treatment to avoid allergens, to irrigate the eyes with saline (salt solution) and to place the ice packs, and the cold water compresses on eyes which this may not be effective in a severe case. The medical treatment is needed to relieve them. Retinitis pigmentosa associated with severe allergic conjunctivitis. This condition isn't helped by other treatments. Conjunctivitis may benefit from specific allergen immunotherapy (desensitization) which the therapy is usually effective. Most commonly used and prescribed medications are: levocabastine (brand name Livostin); antihistamines (antolozine) together with a medicine that constricts blood vessels (naphazoline, phenylephrine); sodium cromoglycate (4%); non-steroidal anti-inflammatory (NSAID) eye drops; and steroids (hydrocortisone, Dexamethasone, prednisolone). Eye drops containing anti allergic, vasoconstrictors, and cortisone, can be used long term to treat retinitis pigmentosa and allergic conditions. The drops with insulin applied before the use of the above described therapeutic agents.

[11] = preliminary studies
[12] = tested on: H2O2 induced lipid peroxidation; settings: insulin pretreatment; cited from earlier work
[13] = tested on: MCF-7 human breast cancer cells; settings: in vitro; cited from earlier work

CC(=O)Nc1nnc(S(N)(=O)=O)s1 [Acetazolamide]
improving the macular edema compared to brinzolamide (macular edema): more effective

COc1cc(/C=C/C(=O)CC(=O)/C=C/c2ccc(O)c(OC)c2)ccc1O [Curcumin, curcumin]
toxicity to the retina or the CNS [1]: isn't toxic to the retina or the CNS

CS(C)(=O)=O [MSM, Methylsulfonylmethane]
vision reported by patients ([2]; MSM ophthalmic drops, aged, Lyme disease and cancer patients): their vision had improved | treatment result in retinitis pigmentosa, dry eye syndrome, glaucoma and other oculopathies ([2]; aqueous MSM mixed with insulin, as eye drops): good results | solubility in water [3]: soluble in water

O=C(O)COc1nn(Cc2ccccc2)c2ccccc12 [bendazac, (1-phenylmethyl-1IH-indazol-3-yl) oxy acetic acid]
effect on retinitis pigmentosa (retinitis pigmentosa [4]): improvement in retinitis pigmentosa

CCCCCCCCCCCCCCCC(=O)OC/C=C(C)/C=C/C=C(C)/C=C/C1=C(C)CCCC1(C)C [vitamin A palmitate]
progression of retinitis pigmentosa ([5]; daily intake of 15000 IU (equivalent to 4.5 mg)): can be reduced

Insulin aspart
Onset of Action in hours [6]: ¼-½

Insulin detemir
Effective duration of action [6]: 14 h | Maximum duration [6]: ~20 h | Onset of Action [6]: 3 to 4 h | Peak action in hours [6]: 6 to 8 h

Insulin glargine
Effective duration of action [6]: 18 to 20 h | Maximum duration [6]: 20 to 24 h | Onset of Action [6]: 3 to 4 h | Peak action in hours [6]: 8 to 16 h

Insulin glulisine
Onset of Action in hours [6]: ¼-½

Insulin lispro
Onset of Action in hours [6]: ¼-½

Regular (soluble): short-acting insulin
Effective duration of action [6]: 3 to 6 h | Maximum duration [6]: 6 to 8 h | Peak action in hours [6]: 2 to 3 h

anethole dithiolethione [ADT]
treatment result in dry mouth and dry eyes conditions [7]: successes

brimonidine tartrate
photoreceptor cell degeneration (photoreceptor cell): can prevent photoreceptor cell degeneration

insulin
blood sugar levels after local application ([8]; local application incl. scalp, gums, oral and nasal mucosa, conjunctival sac, wounds, tumors): did not change the blood sugar levels | hypoglycemic effects ([8]; ophthalmic insulin drops, applicant's practice): never reported the development of a single case of hypoglycemic effects | treatment result in oculopathies including retinitis pigmentosa (retinitis pigmentosa [9]): great success | relief of the allergic condition [10]: relieved rapidly | absorption from the conjunctival sac [11]: rapidly absorbed | H2O2 induced lipid peroxidation [12]: greatly inhibited | increase of the cytotoxic effect of methotrexate [13]: up to 10,000 fold

vitamin A
postponement of blindness ([5]; vitamin A supplementation): ~10 years
